One block for each binder: values may come before it.
Target: mixture of three Der p 2 specific recombinant human IgE clones H10, H12, P4E (human) (UniProt P01854)
Assay: RBL-SX38 IgE displacement, FACS

mixture of three Der p 2 specific recombinant human IgE clones H10, H12, P4E (human), sequence (P01854 other isoform, or with tags, fused parts or gaps): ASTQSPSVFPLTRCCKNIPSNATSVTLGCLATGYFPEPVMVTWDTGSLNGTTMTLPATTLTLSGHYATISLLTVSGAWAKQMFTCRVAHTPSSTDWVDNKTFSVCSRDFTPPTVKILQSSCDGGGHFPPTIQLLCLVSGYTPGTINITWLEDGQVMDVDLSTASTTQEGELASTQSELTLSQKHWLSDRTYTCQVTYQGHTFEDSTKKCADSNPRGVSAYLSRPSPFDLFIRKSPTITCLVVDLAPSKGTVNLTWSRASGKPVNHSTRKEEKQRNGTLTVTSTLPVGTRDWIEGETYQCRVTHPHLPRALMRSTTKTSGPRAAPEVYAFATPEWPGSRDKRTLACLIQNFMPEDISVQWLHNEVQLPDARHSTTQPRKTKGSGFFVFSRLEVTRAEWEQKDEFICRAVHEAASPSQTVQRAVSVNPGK

B1: CIgG4D2A1(G4S)3 (Fc fusion)
chain 1: GPPCPPCPAPEFLGGPSVFLFPPKPKDTLMISRTPEVTCVVVDVSQEDPEVQFNWYVDGVEVHNAKTKPREEQFNSTYRVVSVLTVLHQDWLNGKEYKCKVSNKGLPSSIEKTISKAKGQPREPQVYTLPPCQEEMTKNQVSLWCLVKGFYPSDIAVEWESNGQPENNYKTTPPVLDSDGSFFLYSRLTVDKSRWQEGNVFSCSVMHEALHNHYTQKSLSLSLGKGGGGSGGGGSGGGGSDVQLQESGGGLVEAGGSLRLSCVASGRTFSGWSMGWFRQAPGKEREFVAAISWVGSWIGGTVYSNSVKGRFTISRDNARTTVYLQMNSLKPEDTAVYFCAAANSETPRIFASEYDYWGQGTQVTVS
chain 2: GPPCPPCPAPEFLGGPSVFLFPPKPKDTLMISRTPEVTCVVVDVSQEDPEVQFNWYVDGVEVHNAKTKPREEQFNSTYRVVSVLTVLHQDWLNGKEYKCKVSNKGLPSSIEKTISKAKGQPREPQVCTLPPSQEEMTKNQVSLSCAVKGFYPSDIAVEWESNGQPENNYKTTPPVLDSDGSFFLVSRLTVDKSRWQEGNVFSCSVMHEALHNHYTQKSLSLSLGKGGGGSGGGGSGGGGSEVQLLESGGGLVQPGGSLRLSCAASGFTFGNYDMAWVRQAPGKRPEWVSSIDTGGDITHYADSVKGRFTISRDNAKNTLYLQMNSLRPEDTAVYWCATDEEYALGPNEFDYYGQGTLVTVSS
EC50: 28.8 nM
Max effect/effect 1 µM: 99%

B3: CIgG4E1A1(RS) (Fc fusion)
chain 1: GPPCPPCPAPEFLGGPSVFLFPPKPKDTLMISRTPEVTCVVVDVSQEDPEVQFNWYVDGVEVHNAKTKPREEQFNSTYRVVSVLTVLHQDWLNGKEYKCKVSNKGLPSSIEKTISKAKGQPREPQVYTLPPCQEEMTKNQVSLWCLVKGFYPSDIAVEWESNGQPENNYKTTPPVLDSDGSFFLYSRLTVDKSRWQEGNVFSCSVMHEALHNHYTQKSLSLSLGKRSDVQLQESGGGLVQAGGSLRLSCLASGRTFTTTSGYNMGWFRQAPGKEREFVAGIKWVSGSNRAYAESVKGRFTISRDNAKNTVYLQMNSLKPEDTAVYYCAAATGQSYVPIREYEYVYWGQGTQVTVS
chain 2: GPPCPPCPAPEFLGGPSVFLFPPKPKDTLMISRTPEVTCVVVDVSQEDPEVQFNWYVDGVEVHNAKTKPREEQFNSTYRVVSVLTVLHQDWLNGKEYKCKVSNKGLPSSIEKTISKAKGQPREPQVCTLPPSQEEMTKNQVSLSCAVKGFYPSDIAVEWESNGQPENNYKTTPPVLDSDGSFFLVSRLTVDKSRWQEGNVFSCSVMHEALHNHYTQKSLSLSLGKRSEVQLLESGGGLVQPGGSLRLSCAASGFTFGNYDMAWVRQAPGKRPEWVSSIDTGGDITHYADSVKGRFTISRDNAKNTLYLQMNSLRPEDTAVYWCATDEEYALGPNEFDYYGQGTLVTVSS
Max effect/effect 1 µM: 9%

B5: CIgG4E1A1(G4S)1 (Fc fusion)
chain 1: GPPCPPCPAPEFLGGPSVFLFPPKPKDTLMISRTPEVTCVVVDVSQEDPEVQFNWYVDGVEVHNAKTKPREEQFNSTYRVVSVLTVLHQDWLNGKEYKCKVSNKGLPSSIEKTISKAKGQPREPQVYTLPPCQEEMTKNQVSLWCLVKGFYPSDIAVEWESNGQPENNYKTTPPVLDSDGSFFLYSRLTVDKSRWQEGNVFSCSVMHEALHNHYTQKSLSLSLGKGGGGSDVQLQESGGGLVQAGGSLRLSCLASGRTFTTTSGYNMGWFRQAPGKEREFVAGIKWVSGSNRAYAESVKGRFTISRDNAKNTVYLQMNSLKPEDTAVYYCAAATGQSYVPIREYEYVYWGQGTQVTVS
chain 2: GPPCPPCPAPEFLGGPSVFLFPPKPKDTLMISRTPEVTCVVVDVSQEDPEVQFNWYVDGVEVHNAKTKPREEQFNSTYRVVSVLTVLHQDWLNGKEYKCKVSNKGLPSSIEKTISKAKGQPREPQVCTLPPSQEEMTKNQVSLSCAVKGFYPSDIAVEWESNGQPENNYKTTPPVLDSDGSFFLVSRLTVDKSRWQEGNVFSCSVMHEALHNHYTQKSLSLSLGKGGGGSEVQLLESGGGLVQPGGSLRLSCAASGFTFGNYDMAWVRQAPGKRPEWVSSIDTGGDITHYADSVKGRFTISRDNAKNTLYLQMNSLRPEDTAVYWCATDEEYALGPNEFDYYGQGTLVTVSS
EC50: 96.1 nM
Max effect/effect 1 µM: 95%

B6: NIgG4E1A1(RS) (Fc fusion)
chain 1: DVQLQESGGGLVQAGGSLRLSCLASGRTFTTTSGYNMGWFRQAPGKEREFVAGIKWVSGSNRAYAESVKGRFTISRDNAKNTVYLQMNSLKPEDTAVYYCAAATGQSYVPIREYEYVYWGQGTQVTVSRSGPPCPPCPAPEFLGGPSVFLFPPKPKDTLMISRTPEVTCVVVDVSQEDPEVQFNWYVDGVEVHNAKTKPREEQFNSTYRVVSVLTVLHQDWLNGKEYKCKVSNKGLPSSIEKTISKAKGQPREPQVYTLPPCQEEMTKNQVSLWCLVKGFYPSDIAVEWESNGQPENNYKTTPPVLDSDGSFFLYSRLTVDKSRWQEGNVFSCSVMHEALHNHYTQKSLSLSLGK
chain 2: EVQLLESGGGLVQPGGSLRLSCAASGFTFGNYDMAWVRQAPGKRPEWVSSIDTGGDITHYADSVKGRFTISRDNAKNTLYLQMNSLRPEDTAVYWCATDEEYALGPNEFDYYGQGTLVTVSSRSGPPCPPCPAPEFLGGPSVFLFPPKPKDTLMISRTPEVTCVVVDVSQEDPEVQFNWYVDGVEVHNAKTKPREEQFNSTYRVVSVLTVLHQDWLNGKEYKCKVSNKGLPSSIEKTISKAKGQPREPQVCTLPPSQEEMTKNQVSLSCAVKGFYPSDIAVEWESNGQPENNYKTTPPVLDSDGSFFLVSRLTVDKSRWQEGNVFSCSVMHEALHNHYTQKSLSLSLGK
EC50: 8.7 nM
Max effect/effect 1 µM: 97%

B7: CIgG4E1A1(G4S)2 (Fc fusion)
chain 1: GPPCPPCPAPEFLGGPSVFLFPPKPKDTLMISRTPEVTCVVVDVSQEDPEVQFNWYVDGVEVHNAKTKPREEQFNSTYRVVSVLTVLHQDWLNGKEYKCKVSNKGLPSSIEKTISKAKGQPREPQVYTLPPCQEEMTKNQVSLWCLVKGFYPSDIAVEWESNGQPENNYKTTPPVLDSDGSFFLYSRLTVDKSRWQEGNVFSCSVMHEALHNHYTQKSLSLSLGKGGGGSGGGGSDVQLQESGGGLVQAGGSLRLSCLASGRTFTTTSGYNMGWFRQAPGKEREFVAGIKWVSGSNRAYAESVKGRFTISRDNAKNTVYLQMNSLKPEDTAVYYCAAATGQSYVPIREYEYVYWGQGTQVTVS
chain 2: GPPCPPCPAPEFLGGPSVFLFPPKPKDTLMISRTPEVTCVVVDVSQEDPEVQFNWYVDGVEVHNAKTKPREEQFNSTYRVVSVLTVLHQDWLNGKEYKCKVSNKGLPSSIEKTISKAKGQPREPQVCTLPPSQEEMTKNQVSLSCAVKGFYPSDIAVEWESNGQPENNYKTTPPVLDSDGSFFLVSRLTVDKSRWQEGNVFSCSVMHEALHNHYTQKSLSLSLGKGGGGSGGGGSEVQLLESGGGLVQPGGSLRLSCAASGFTFGNYDMAWVRQAPGKRPEWVSSIDTGGDITHYADSVKGRFTISRDNAKNTLYLQMNSLRPEDTAVYWCATDEEYALGPNEFDYYGQGTLVTVSS
EC50: 35.6 nM
Max effect/effect 1 µM: 99%

Now from value to binder:

EC50: 3.7 nM
Max effect/effect 1 µM: 98%
B2: NIgG4E1A1(G4S)3 (Fc fusion)
chain 1: DVQLQESGGGLVQAGGSLRLSCLASGRTFTTTSGYNMGWFRQAPGKEREFVAGIKWVSGSNRAYAESVKGRFTISRDNAKNTVYLQMNSLKPEDTAVYYCAAATGQSYVPIREYEYVYWGQGTQVTVSGGGGSGGGGSGGGGSGPPCPPCPAPEFLGGPSVFLFPPKPKDTLMISRTPEVTCVVVDVSQEDPEVQFNWYVDGVEVHNAKTKPREEQFNSTYRVVSVLTVLHQDWLNGKEYKCKVSNKGLPSSIEKTISKAKGQPREPQVYTLPPCQEEMTKNQVSLWCLVKGFYPSDIAVEWESNGQPENNYKTTPPVLDSDGSFFLYSRLTVDKSRWQEGNVFSCSVMHEALHNHYTQKSLSLSLGK
chain 2: EVQLLESGGGLVQPGGSLRLSCAASGFTFGNYDMAWVRQAPGKRPEWVSSIDTGGDITHYADSVKGRFTISRDNAKNTLYLQMNSLRPEDTAVYWCATDEEYALGPNEFDYYGQGTLVTVSSGGGGSGGGGSGGGGSGPPCPPCPAPEFLGGPSVFLFPPKPKDTLMISRTPEVTCVVVDVSQEDPEVQFNWYVDGVEVHNAKTKPREEQFNSTYRVVSVLTVLHQDWLNGKEYKCKVSNKGLPSSIEKTISKAKGQPREPQVCTLPPSQEEMTKNQVSLSCAVKGFYPSDIAVEWESNGQPENNYKTTPPVLDSDGSFFLVSRLTVDKSRWQEGNVFSCSVMHEALHNHYTQKSLSLSLGK

EC50: 4.8 nM
Max effect/effect 1 µM: 94%
B4: NIgG4E1A1(G4S)2 (Fc fusion)
chain 1: DVQLQESGGGLVQAGGSLRLSCLASGRTFTTTSGYNMGWFRQAPGKEREFVAGIKWVSGSNRAYAESVKGRFTISRDNAKNTVYLQMNSLKPEDTAVYYCAAATGQSYVPIREYEYVYWGQGTQVTVSGGGGSGGGGSGPPCPPCPAPEFLGGPSVFLFPPKPKDTLMISRTPEVTCVVVDVSQEDPEVQFNWYVDGVEVHNAKTKPREEQFNSTYRVVSVLTVLHQDWLNGKEYKCKVSNKGLPSSIEKTISKAKGQPREPQVYTLPPCQEEMTKNQVSLWCLVKGFYPSDIAVEWESNGQPENNYKTTPPVLDSDGSFFLYSRLTVDKSRWQEGNVFSCSVMHEALHNHYTQKSLSLSLGK
chain 2: EVQLLESGGGLVQPGGSLRLSCAASGFTFGNYDMAWVRQAPGKRPEWVSSIDTGGDITHYADSVKGRFTISRDNAKNTLYLQMNSLRPEDTAVYWCATDEEYALGPNEFDYYGQGTLVTVSSGGGGSGGGGSGPPCPPCPAPEFLGGPSVFLFPPKPKDTLMISRTPEVTCVVVDVSQEDPEVQFNWYVDGVEVHNAKTKPREEQFNSTYRVVSVLTVLHQDWLNGKEYKCKVSNKGLPSSIEKTISKAKGQPREPQVCTLPPSQEEMTKNQVSLSCAVKGFYPSDIAVEWESNGQPENNYKTTPPVLDSDGSFFLVSRLTVDKSRWQEGNVFSCSVMHEALHNHYTQKSLSLSLGK

EC50: 7.1 nM
Max effect/effect 1 µM: 96%
B8: NIgG4E1A1(G4S)1 (Fc fusion)
chain 1: DVQLQESGGGLVQAGGSLRLSCLASGRTFTTTSGYNMGWFRQAPGKEREFVAGIKWVSGSNRAYAESVKGRFTISRDNAKNTVYLQMNSLKPEDTAVYYCAAATGQSYVPIREYEYVYWGQGTQVTVSGGGGSGPPCPPCPAPEFLGGPSVFLFPPKPKDTLMISRTPEVTCVVVDVSQEDPEVQFNWYVDGVEVHNAKTKPREEQFNSTYRVVSVLTVLHQDWLNGKEYKCKVSNKGLPSSIEKTISKAKGQPREPQVYTLPPCQEEMTKNQVSLWCLVKGFYPSDIAVEWESNGQPENNYKTTPPVLDSDGSFFLYSRLTVDKSRWQEGNVFSCSVMHEALHNHYTQKSLSLSLGK
chain 2: EVQLLESGGGLVQPGGSLRLSCAASGFTFGNYDMAWVRQAPGKRPEWVSSIDTGGDITHYADSVKGRFTISRDNAKNTLYLQMNSLRPEDTAVYWCATDEEYALGPNEFDYYGQGTLVTVSSGGGGSGPPCPPCPAPEFLGGPSVFLFPPKPKDTLMISRTPEVTCVVVDVSQEDPEVQFNWYVDGVEVHNAKTKPREEQFNSTYRVVSVLTVLHQDWLNGKEYKCKVSNKGLPSSIEKTISKAKGQPREPQVCTLPPSQEEMTKNQVSLSCAVKGFYPSDIAVEWESNGQPENNYKTTPPVLDSDGSFFLVSRLTVDKSRWQEGNVFSCSVMHEALHNHYTQKSLSLSLGK
